Substitutions are numbered along the chain they refer to.
B1: hRND-2 (antibody, human IgG1, kappa, V domains shown)
VH: QVQLVQSGAEVKKPGASVKVSCKASGYAFTSYWMHWVRQAPGQRLEWMGEIYPTNGGTTYAQKFQGRVTMTVDKSTSTAYMELSRLRSDDTAVYYCTIEDFYAMDYWGQGTTVTVSS
VL: DIVMTQTPLSLSVTPGQPASISCKSSQSLLDSDGKTSLNWLLQKPGQSPQRLIYLVSKLDSGVPDRFSGSGSGTDFTLKISRVEAEDVGVYYCWQGTHFPYTFGQGTKLEIKR
notes: also called humanized RND-2; hRND-H2 / hRND-L3; copies: 2 + 2
B2: hRND-5 (antibody, human IgG1, kappa, V domains shown)
VH: B1 VH with V20L, M48I, A61N, Q62E, Q65K, G66R, V68A, M70L
VL: B1 VL
notes: also called humanized RND-5; hRND-H3b / hRND-L3; copies: 2 + 2
B3: hRND-4 (antibody, human IgG1, kappa, V domains shown)
VH: B1 VH with A61N, Q62E, Q65K, G66R
VL: B1 VL
notes: also called humanized RND-4; hRND-H2b / hRND-L3; copies: 2 + 2
B4: hRND-3 (antibody, human IgG1, kappa, V domains shown)
VH: B1 VH with V20L, M48I, V68A, M70L
VL: B1 VL
notes: also called humanized RND-3; hRND-H3 / hRND-L3; copies: 2 + 2

Columns and labels:
[1] = biological target: T1, Human siglec-6 (BLI analyte) (human, UniProt O43699 27-347, limits assumed); assay: BLI (Octet), antibody on capture sensor
T1 construct: also called human siglect-6
Description: Further, binding affinities of siglec-6 antibodies to human siglec-6 were measured by […] using an Octect instrument. Briefly, capture sensors were loaded with test antibodies with 3-fold dilutions. The association and dissociation rates to were determined and used to calculate the equilibrium dissociation constant KD (Table 6).

[2] = biological target: T2, Human siglec-6 expressed on the cell surface (HMC1.2 cells; HEK293 cells expressing human siglec-6) (human, UniProt O43699 27-453); assay: flow cytometry on HMC1.2 cells
T2 construct: whole, on cells; also called cell surface expressed siglec-6; CD327
Description: Target binding of siglec-6 antibodies to siglec-6-expressing cells was assessed by flow cytometry. Cultured HMC1.2 cells were resuspended in FACS Blocking Buffer (PBS+10% normal human serum) for 30 minutes. Following washing, cells were incubated with siglec-6 antibodies in FACS Buffer (PBS+0.5% bovine serum albumin+0.09% sodium azide) and incubated at 4° C. for 30 minutes, washed and incubated with PE-labeled anti-human or anti-mouse secondary antibodies. Cells were incubated at 4° C. for 30 minutes in the dark. Following washing, cytofluorimetric analysis was conducted using a BD FACS Symphony A3 (BD Biosciences). Cells were sorted by scatter properties and separated for single cell analysis using side scatter width vs side scatter area. Antibody binding to cells was quantitated by measuring fluorescent emissions of excitation wavelength of 561 nm using a 586/15 nm filter. All tested siglec-6 antibodies were capable of binding to cells expressing siglec-6.

T2 sequence (O43699 27-453): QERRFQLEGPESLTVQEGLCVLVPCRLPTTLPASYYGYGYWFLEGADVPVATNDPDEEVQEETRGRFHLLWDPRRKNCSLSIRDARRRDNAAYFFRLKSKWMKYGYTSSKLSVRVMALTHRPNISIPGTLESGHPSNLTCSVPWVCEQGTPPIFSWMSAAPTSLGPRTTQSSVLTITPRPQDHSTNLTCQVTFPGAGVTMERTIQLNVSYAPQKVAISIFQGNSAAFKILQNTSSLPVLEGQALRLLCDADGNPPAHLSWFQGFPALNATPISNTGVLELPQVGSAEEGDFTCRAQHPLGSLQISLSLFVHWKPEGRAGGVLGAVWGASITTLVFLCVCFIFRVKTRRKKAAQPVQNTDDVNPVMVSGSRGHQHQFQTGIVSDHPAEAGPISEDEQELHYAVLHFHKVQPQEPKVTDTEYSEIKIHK
T1 sequence (O43699 27-347 limits assumed): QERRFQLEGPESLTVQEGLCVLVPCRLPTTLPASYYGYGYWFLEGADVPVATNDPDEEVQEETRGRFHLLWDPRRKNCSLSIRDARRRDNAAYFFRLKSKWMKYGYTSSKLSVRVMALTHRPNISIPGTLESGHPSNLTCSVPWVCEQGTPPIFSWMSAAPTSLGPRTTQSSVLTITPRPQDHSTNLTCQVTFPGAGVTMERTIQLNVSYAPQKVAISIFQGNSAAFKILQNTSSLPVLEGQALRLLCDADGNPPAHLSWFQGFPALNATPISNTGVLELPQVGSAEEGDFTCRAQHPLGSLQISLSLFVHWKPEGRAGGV

Binder	Kd [1] [nM]	MFI [2] [MFI]	Percent Positive for Siglec-6 on HMC1.2 cells [2] [%]
B1	0.17	3130	99.9
B2	0.166	1940	99.9
B3	0.315	3200	100
B4	0.137	3700	99.9
